# Experimental data reported in publication PMC7923638 (BMC Biotechnology, 2021).
# Experiments:
# [1] = target: T1, CsSDC (Camellia sinensis, UniProt A0A4S4DBB3); assay: decarboxylase activity with and without […] PLP, UPLC; format: biochemical; conditions: 20 mM serine, 40 °C, pH 7.0
# T1 construct: gene SerDC; about 75 kDa on SDS-PAGE
# [2] = substrate: C[C@H](N)C(=O)O; assay: purified protein; conditions: 45 °C, pH 8.0, 100 mM potassium phosphate, 0.1 mM PLP, 5 mM DTT, 1 mM K2EDTA, 10% glycerol, 1-100 mM substrate
# T1 sequence (A0A4S4DBB3 entry or part of it): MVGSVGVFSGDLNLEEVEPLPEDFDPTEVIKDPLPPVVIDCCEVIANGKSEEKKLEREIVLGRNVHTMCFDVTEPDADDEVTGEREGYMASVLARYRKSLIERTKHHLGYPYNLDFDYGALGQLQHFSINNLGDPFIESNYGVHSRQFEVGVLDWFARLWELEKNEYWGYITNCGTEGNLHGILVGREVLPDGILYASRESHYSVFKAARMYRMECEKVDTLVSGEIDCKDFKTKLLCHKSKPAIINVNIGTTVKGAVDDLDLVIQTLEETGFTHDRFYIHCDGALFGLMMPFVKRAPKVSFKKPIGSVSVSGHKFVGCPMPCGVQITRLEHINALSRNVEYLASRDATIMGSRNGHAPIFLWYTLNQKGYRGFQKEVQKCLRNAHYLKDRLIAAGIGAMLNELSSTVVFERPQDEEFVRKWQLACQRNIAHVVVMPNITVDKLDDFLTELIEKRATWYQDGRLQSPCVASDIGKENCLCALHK
Molecule,"decarboxylase activity with and without 0.1 mM PLP, UPLC [1]",Km [2] [mM],Vmax [2] [µmol/min/mg]
Cc1ncc(COP(=O)(O)O)c(C=O)c1O [pyridoxal-5′-phosphate],activities of CsAlaDC and CsSDC are significantly dependent on the presence of PLP,,
CsAlaDC (Camellia sinensis var. sinensis) (protein) MEGTVSVLSNVSKVELLSKCFDLITIPVEPLPPVVASNGVAGGETKNMKERDIVLGKNVHTTSLTITEPDVDDDSTSDMEAFMAGVLVRYRKTLIEKTKYHLGYPFNLDLDYGPLAELQHFAINNLGDPFIESNYGVHSRQFEVGVLDWFARLWEIEQKEYWGYITNGGTEGNLHGILIGREVFPDGIFYTSRESHYSIFKAARMYRMECVKVGTLINGEIDCADFKAKLLSNKDKPAIINLNIGTTVKGAVDDIDLVIQTLEECGFSHDRFYIHCDGALFGFMMPFLNRGPKITFKKPIGSVSVSGHKFMGCPTPCGVQITRLEHINALSRNVEYLASRDATITGSRNGHSPIILWYALNRKGFKGFQKEVQKCLRNAHYLKDRLREAGISAMLNELSSTVVFERPLDEEFVRRWQLACEGNMAHVIVMPNVTIEKLDEFLNELVQKRANWYNDGKAGPPCLAPDIGSENCDCDLHK,,33.25,3470
